From patent US20200040057A1 (IMMATICS BIOTECHNOLOGIES, published 2020)

B1: FPCSALLACF (peptide)
peptide: FPCSALLACF
B2: SPIPRPLFL (peptide)
peptide: SPIPRPLFL
B3: KPHLDRRGAVI (peptide)
peptide: KPHLDRRGAVI
B4: MPYVVLTAL (peptide)
peptide: MPYVVLTAL
B5: VPMPGVQAV (peptide)
peptide: VPMPGVQAV
B6: SPITLQAL (peptide)
peptide: SPITLQAL
B7: RPVWDVRSA (peptide)
peptide: RPVWDVRSA
B8: LPIARVLTV (peptide)
peptide: LPIARVLTV
B9: LPLNSSTSL (peptide)
peptide: LPLNSSTSL
B10: DVIDDIISL (peptide)
peptide: DVIDDIISL
B11: SPSTSRTPLLSSL (peptide)
peptide: SPSTSRTPLLSSL
B12: IPHQRSSL (peptide)
peptide: IPHQRSSL
B13: LVQSSRSEV (peptide)
peptide: LVQSSRSEV
B14: QPDHAGIFRVF (peptide)
peptide: QPDHAGIFRVF
B15: RPFSVSSISQL (peptide)
peptide: RPFSVSSISQL
B16: VPYAAQAAL (peptide)
peptide: VPYAAQAAL
B17: MPVSAFTVI (peptide)
peptide: MPVSAFTVI
B18: RAAGRRLQL (peptide)
peptide: RAAGRRLQL
B19: RPRSLQCVSL (peptide)
peptide: RPRSLQCVSL
B20: RPQPGWRESL (peptide)
peptide: RPQPGWRESL
B21: RLRDYISSL (peptide)
peptide: RLRDYISSL
B22: RPSAPRGPP (peptide)
peptide: RPSAPRGPP
B23: SPSGQRDVSL (peptide)
peptide: SPSGQRDVSL
B24: RPVTGSVC (peptide)
peptide: RPVTGSVC
B25: SPIIHSILL (peptide)
peptide: SPIIHSILL
B26: VPSHWMVAL (peptide)
peptide: VPSHWMVAL
B27: LPRLPVGSLV (peptide)
peptide: LPRLPVGSLV
B28: RPSKEMQVTI (peptide)
peptide: RPSKEMQVTI
B29: AVRLPTPNL (peptide)
peptide: AVRLPTPNL
B30: RPTHPLRSF (peptide)
peptide: RPTHPLRSF
B31: RPRYETGVCA (peptide)
peptide: RPRYETGVCA
B32: QPQCSTHIL (peptide)
peptide: QPQCSTHIL
B33: APEGKRLGF (peptide)
peptide: APEGKRLGF
B34: SPMEAELVRRIL (peptide)
peptide: SPMEAELVRRIL
B35: LPRAGGAFLM (peptide)
peptide: LPRAGGAFLM
B36: RVIQGTTTL (peptide)
peptide: RVIQGTTTL
B37: KPYEGRVEI (peptide)
peptide: KPYEGRVEI
B38: SPTRGSEF (peptide)
peptide: SPTRGSEF
B39: RPDSRLLEL (peptide)
peptide: RPDSRLLEL
B40: NVNPARKGL (peptide)
peptide: NVNPARKGL
B41: SPVPSHWMVAL (peptide)
peptide: SPVPSHWMVAL
B42: KPRTPFTTAQLL (peptide)
peptide: KPRTPFTTAQLL
B43: RPVLTASSF (peptide)
peptide: RPVLTASSF
B44: MPVDSFNSM (peptide)
peptide: MPVDSFNSM
B45: QPLDICHSF (peptide)
peptide: QPLDICHSF
B46: MPVDSFNSML (peptide)
peptide: MPVDSFNSML
B47: LPRAGGAF (peptide)
peptide: LPRAGGAF
B48: APPPPPPPF (peptide)
peptide: APPPPPPPF
B49: LPNTGRIGQLL (peptide)
peptide: LPNTGRIGQLL
B50: LPSLSHCSQL (peptide)
peptide: LPSLSHCSQL
B51: KPGFNISIL (peptide)
peptide: KPGFNISIL
B52: TPFPDIHWF (peptide)
peptide: TPFPDIHWF
B53: RPYQDAPVA (peptide)
peptide: RPYQDAPVA
B54: LPALKEEAF (peptide)
peptide: LPALKEEAF
B55: LPRAFLQSL (peptide)
peptide: LPRAFLQSL
B56: YPSSPASAV (peptide)
peptide: YPSSPASAV
B57: QPVHSLCSA (peptide)
peptide: QPVHSLCSA
B58: KPKAVKPKAA (peptide)
peptide: KPKAVKPKAA
B59: QPTWNTQTRL (peptide)
peptide: QPTWNTQTRL
B60: QPSLVQAIF (peptide)
peptide: QPSLVQAIF
B61: NPRSPPATM (peptide)
peptide: NPRSPPATM
B62: APARPAAAF (peptide)
peptide: APARPAAAF
B63: SPAAPLSPASSL (peptide)
peptide: SPAAPLSPASSL
B64: FPAPPAHWF (peptide)
peptide: FPAPPAHWF
B65: APLPRPGAV (peptide)
peptide: APLPRPGAV
B66: RPILKEQSSSSF (peptide)
peptide: RPILKEQSSSSF
B67: IPVTSSVTL (peptide)
peptide: IPVTSSVTL
B68: GPVPSPLAL (peptide)
peptide: GPVPSPLAL

What follows are binders tested against HLA-B*07 (human) (assay: UV peptide exchange ELISA; ++++ = yield >75%).

Peptide exchange yield, > 75%:
B1
B2
B3
B4
B5
B6
B7
B8
B9
B10
B11
B12
B13
B14
B15
B16
B17
B18
B19
B20
B21
B22
B23
B24
B25
B26
B27
B28
B29
B30
B31
B32
B33
B34
B35
B36
B37
B38
B39
B40
B41
B42
B43
B44
B45
B46
B47
B48
B49
B50
B51
B52
B53
B54
B55
B56
B57
B58
B59
B60
B61
B62
B63
B64
B65
B66
B67
B68
